Experimental findings from US7410767 are described below.

Some results are limits rather than exact numbers.

The target in experiment [1] is T1, HLA-E (as used in the in vitro peptide binding assay and in immunoprecipitation) (human), P13747. The experiment is described as follows: in vitro peptide binding assay (ratio of optical densities); row .221-A*0201.
Experiment [2] addresses T1, HLA-E (as used in the in vitro peptide …). As to the kind of experiment: in vitro peptide binding assay (ratio of optical densities); row .221-A*0211.
Experiment [3] shares this target. As to the kind of experiment: in vitro peptide binding assay (ratio of optical densities); row .221-A*2403.
The target is the same in experiment [4]. The experiment is described as follows: in vitro peptide binding assay (ratio of optical densities); row .221-A*2501.
Experiment [5] has the same target. As to the kind of experiment: in vitro peptide binding assay (ratio of optical densities); row .221-A*3601.
Experiment [6] has the same target. The experiment is described as follows: in vitro peptide binding assay (ratio of optical densities); row .221-B*5501.

On to VMAPRTLVL (modifications not checked), for which the Concentration of peptide required to obtain 50% of binding to HLA-E in experiment [1], in experiment [2], in experiment [3] and in experiment [4] was 0.06 µM throughout.

Turning to VMAPRTLLL (modifications not checked), in experiment [5], the Concentration of peptide required to obtain 50% of binding to HLA-E worked out at 0.3 µM.

Regarding VTAPRTLLL (modifications not checked), the Concentration of peptide required to obtain 50% of binding to HLA-E in experiment [6] is above 100 µM.
